# Data: the supplement of paper PMC10567573
# B1: MATN2 (parent)
# chain: VNVPGSFVCQCYSGYALAEDGKRC
# Variants of: B1
# Test: protein stability index of a GFP-peptide fusion (GPS, HEK-293T) (PSI 1-6); higher = more stable
# Details: c terminus: a fixed tail appended
# 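Further: lentivirally expressed fusions sorted by FACS into six bins by GFP to DsRed ratio, PSI derived from sequencing read proportions per bin multiplied by bin number.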
row,Variant,protein stability index
1,VNYPGSFVCQCYSGYALAEDGKRC,2.52
2,VNSPGSFVCQCYSGYALAEDGKRC,2.16
3,VNKPGSFVCQCYSGYALAEDGKRC,2.82
4,VNMPGSFVCQCYSGYALAEDGKRC,2.21
5,VNLPGSFVCQCYSGYALAEDGKRC,2.35
6,VNCPGSFVCQCYSGYALAEDGKRC,1.08
7,VNRPGSFVCQCYSGYALAEDGKRC,2.05
8,VNQPGSFVCQCYSGYALAEDGKRC,2.26
9,VNFPGSFVCQCYSGYALAEDGKRC,1.69
10,VNPPGSFVCQCYSGYALAEDGKRC,2.08
11,VNDPGSFVCQCYSGYALAEDGKRC,2.11
12,VNAPGSFVCQCYSGYALAEDGKRC,1.49
13,VNEPGSFVCQCYSGYALAEDGKRC,1.19
14,VNTPGSFVCQCYSGYALAEDGKRC,2.39
15,VNNPGSFVCQCYSGYALAEDGKRC,1.73
16,VNIPGSFVCQCYSGYALAEDGKRC,1.23
17,VNHPGSFVCQCYSGYALAEDGKRC,1.81
18,VNVPGCFVCQCYSGYALAEDGKRC,2.05
19,VNVPGYFVCQCYSGYALAEDGKRC,1.87
20,VNVPGKFVCQCYSGYALAEDGKRC,1.89
21,VNVPGQFVCQCYSGYALAEDGKRC,1.81
22,VNVPGVFVCQCYSGYALAEDGKRC,1.84
23,VNVPGDFVCQCYSGYALAEDGKRC,2.97
24,VNVPGHFVCQCYSGYALAEDGKRC,2.27

row,Variant,protein stability index
1,VNVPGTFVCQCYSGYALAEDGKRC,2.12
2,VNVPGRFVCQCYSGYALAEDGKRC,3.39
3,VNVPGWFVCQCYSGYALAEDGKRC,2.04
4,VNVPGNFVCQCYSGYALAEDGKRC,1.43
5,VNVPGGFVCQCYSGYALAEDGKRC,1.47
6,VNVPGEFVCQCYSGYALAEDGKRC,2.67
7,VNVPGFFVCQCYSGYALAEDGKRC,3.53
8,VNVPTSFVCQCYSGYALAEDGKRC,1.87
9,VNVPVSFVCQCYSGYALAEDGKRC,1.17
10,VNVPISFVCQCYSGYALAEDGKRC,1.45
11,VNVPESFVCQCYSGYALAEDGKRC,1.79
12,VNVPYSFVCQCYSGYALAEDGKRC,1.2
13,VNVPLSFVCQCYSGYALAEDGKRC,1.06
14,VNVPQSFVCQCYSGYALAEDGKRC,2.14
15,VNVPPSFVCQCYSGYALAEDGKRC,2.31
16,VNVPSSFVCQCYSGYALAEDGKRC,1.91
17,VNVPDSFVCQCYSGYALAEDGKRC,2.06
18,VNVPMSFVCQCYSGYALAEDGKRC,1.47
19,VNVPASFVCQCYSGYALAEDGKRC,1.67
20,VNVPNSFVCQCYSGYALAEDGKRC,1.75
21,VNVPCSFVCQCYSGYALAEDGKRC,2.68
22,VNVPWSFVCQCYSGYALAEDGKRC,4.67
23,VNVPRSFVCQCYSGYALAEDGKRC,2.17
24,VNVPHSFVCQCYSGYALAEDGKRC,2.6

row,Variant,protein stability index
1,VNVPGSDVCQCYSGYALAEDGKRC,2.56
2,VNVPGSAVCQCYSGYALAEDGKRC,2.85
3,VNVPGSCVCQCYSGYALAEDGKRC,2.28
4,VAVPGSFVCQCYSGYALAEDGKRC,1.9
5,VCVPGSFVCQCYSGYALAEDGKRC,2.12
6,VKVPGSFVCQCYSGYALAEDGKRC,1.38
7,VSVPGSFVCQCYSGYALAEDGKRC,1.82
8,VEVPGSFVCQCYSGYALAEDGKRC,3.38
9,VPVPGSFVCQCYSGYALAEDGKRC,2.75
10,VMVPGSFVCQCYSGYALAEDGKRC,1.71
11,VVVPGSFVCQCYSGYALAEDGKRC,1.25
12,VWVPGSFVCQCYSGYALAEDGKRC,1.79
13,VYVPGSFVCQCYSGYALAEDGKRC,1.41
14,VLVPGSFVCQCYSGYALAEDGKRC,2.28
15,VHVPGSFVCQCYSGYALAEDGKRC,1.97
16,VIVPGSFVCQCYSGYALAEDGKRC,1.75
17,VQVPGSFVCQCYSGYALAEDGKRC,2.28
18,VDVPGSFVCQCYSGYALAEDGKRC,2.19
19,VFVPGSFVCQCYSGYALAEDGKRC,2.64
20,VGVPGSFVCQCYSGYALAEDGKRC,1.89
21,VTVPGSFVCQCYSGYALAEDGKRC,2.35
22,SNVPGSFVCQCYSGYALAEDGKRC,3.31
23,PNVPGSFVCQCYSGYALAEDGKRC,2.86
24,YNVPGSFVCQCYSGYALAEDGKRC,2.85

row,Variant,protein stability index
1,RNVPGSFVCQCYSGYALAEDGKRC,1.37
2,NNVPGSFVCQCYSGYALAEDGKRC,2.06
3,WNVPGSFVCQCYSGYALAEDGKRC,2.91
4,TNVPGSFVCQCYSGYALAEDGKRC,2.36
5,QNVPGSFVCQCYSGYALAEDGKRC,2.01
6,VNVGGSFVCQCYSGYALAEDGKRC,1.86
7,VNVEGSFVCQCYSGYALAEDGKRC,2.46
8,VNVQGSFVCQCYSGYALAEDGKRC,2.97
9,VNVKGSFVCQCYSGYALAEDGKRC,1.92
10,VNVNGSFVCQCYSGYALAEDGKRC,1.94
11,VNVIGSFVCQCYSGYALAEDGKRC,1.04
12,VNVVGSFVCQCYSGYALAEDGKRC,2.28
13,VNVFGSFVCQCYSGYALAEDGKRC,1.36
14,VNVTGSFVCQCYSGYALAEDGKRC,1
15,VNVRGSFVCQCYSGYALAEDGKRC,1.33
16,VNVMGSFVCQCYSGYALAEDGKRC,2.1
17,VNVAGSFVCQCYSGYALAEDGKRC,1.87
18,VNVCGSFVCQCYSGYALAEDGKRC,2.07
19,VNVLGSFVCQCYSGYALAEDGKRC,1.99
20,VNVDGSFVCQCYSGYALAEDGKRC,1.91
21,VNVHGSFVCQCYSGYALAEDGKRC,1.47
22,VNVSGSFVCQCYSGYALAEDGKRC,1.34
